According to patent publication US20230124973:

Columns and labels:
[1] = tested on: hTERT (191-306), purified
[2] = target: T1, hTERT (191-306), purified
T1 chain: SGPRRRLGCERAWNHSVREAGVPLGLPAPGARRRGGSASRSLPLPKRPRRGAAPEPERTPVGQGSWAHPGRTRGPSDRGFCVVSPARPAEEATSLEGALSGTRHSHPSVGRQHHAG

For CDK1-cyclin B (New England Biolabs), the “in vitro kinase assay; phosphorylation site found by mass spectrometry and by Western blotting with Anti-hTERT pT249” value [1] was “pT249 was detected from only a sample treated with CDK1”.

B1: IKK2 (2-664) (protein)
chain: SWSPSLTTQTCGAWEMKERLGTGGFGNVIRWHNQETGEQIAIKQCRQELSPRNRERWCLEIQIMRRLTHPNVVAARDVPEGMQNLAPNDLPLLAMEYCQGGDLRKYLNQFENCCGLREGAILTLLSDIASALRYLHENRIIHRDLKPENIVLQQGEQRLIHKIIDLGYAKELDQGSLCTSFVGTLQYLAPELLEQQKYTVTVDYWSFGTLAFECITGFRPFLPNWQPVQWHSKVRQKSEVDIVVSEDLNGTVKFSSSLPYPNNLNSVLAERLEKWLQLMLMWHPRQRGTDPTYGPNGCFKALDDILNLKLVHILNMVTGTIHTYPVTEDESLQSLKARIQQDTGIPEEDQELLQEAGLALIPDKPATQCISDGKLNEGHTLDMDLVFLFDNSKITYETQISPRPQPESVSCILQEPKRNLAFFQLRKVWGQVWHSIQTLKEDCNRLQQGQRAAMMNLLRNNSCLSKMKNSMASMSQQLKAKLDFFKTSIQIDLEKYSEQTEFGITSDKLLLAWREMEQAVELCGRENEVKLLVERMMALQTDIVDLQRSPMGRKQGGTLDDLEEQARELYRRLREKPRDQRTEGDSQEMVRLLLQAIQSFEKKVRVIYTQLSKTVVCKQKALELLPKVEEVVSLMNEDEKTVVRLQEKRQKELWNLLKIACSK
With B1 the “in vitro kinase assay (negative control); phosphorylation sites found by mass spectrometry” value [2] was “pS206, pS274, pT283 and the like were detected from a sample treated with IKK2”.
